Experiments:
[1] = biological target: human wild-type RON (cell surface) (human) (UniProt Q04912); test: FACS, 10 ug/ml, PC3 cells, 4 C; negative control
[2] = biological target: delta 160 RON variant (cell surface) (human) (UniProt Q04912); test: FACS, 10 ug/ml, HT-29 cells, 4 C; negative control

PC3 % cell surface binding [1]: 5.5%
HT-29 % cell surface binding [2]: 5.62%
Substance: murine IgG control (antibody)
